According to patent US20050142135A1 (published 2005):
Numbering of substitutions follows the chain as printed.

Assays:
[1] = biological target: T1, FSHR^S18A (human, UniProt P23945 18-695)
T1 chain: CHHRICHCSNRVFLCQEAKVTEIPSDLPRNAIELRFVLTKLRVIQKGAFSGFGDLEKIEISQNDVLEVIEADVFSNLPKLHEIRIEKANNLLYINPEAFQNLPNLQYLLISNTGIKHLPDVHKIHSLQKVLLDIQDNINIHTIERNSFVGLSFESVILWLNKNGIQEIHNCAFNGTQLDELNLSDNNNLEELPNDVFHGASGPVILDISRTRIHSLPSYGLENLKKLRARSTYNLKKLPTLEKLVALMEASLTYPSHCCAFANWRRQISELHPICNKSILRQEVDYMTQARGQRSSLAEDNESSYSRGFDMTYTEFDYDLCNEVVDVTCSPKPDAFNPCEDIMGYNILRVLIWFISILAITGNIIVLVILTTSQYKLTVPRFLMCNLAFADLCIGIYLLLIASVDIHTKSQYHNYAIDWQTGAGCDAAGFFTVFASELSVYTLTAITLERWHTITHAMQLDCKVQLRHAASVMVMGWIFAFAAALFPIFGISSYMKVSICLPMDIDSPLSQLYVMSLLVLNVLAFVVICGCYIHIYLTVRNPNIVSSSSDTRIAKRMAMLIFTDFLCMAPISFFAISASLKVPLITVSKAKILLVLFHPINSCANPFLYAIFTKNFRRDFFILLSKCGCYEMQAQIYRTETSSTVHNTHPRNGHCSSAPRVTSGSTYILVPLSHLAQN

[2] = biological target: T2, FSHR^L14A (human, UniProt P23945 18-695)
T2 chain: T1 chain with L14A, A18S

[3] = biological target: T3, FSHR^V12A (human, UniProt P23945 18-695)
T3 chain: T1 chain with V12A, A18S

[4] = biological target: T4, FSHR^F13A (human, UniProt P23945 18-695)
T4 chain: T1 chain with F13A, A18S

[5] = biological target: T5, FSHR^N10A (human, UniProt P23945 18-695)
T5 chain: T1 chain with N10A, A18S

[6] = biological target: T6, FSHR^S9A (human, UniProt P23945 18-695)
T6 chain: T1 chain with S9A, A18S

[7] = biological target: P582 R; test: 125I-FSH displacement / Scatchard
[8] = biological target: P582 L; test: 125I-FSH displacement / Scatchard
[9] = biological target: P582 Y; test: 125I-FSH displacement / Scatchard
[10] = biological target: P582 E; test: 125I-FSH displacement / Scatchard
[11] = biological target: P582 C; test: 125I-FSH displacement / Scatchard
[12] = biological target: P582 F; test: 125I-FSH displacement / Scatchard
[13] = biological target: P582 S; test: 125I-FSH displacement / Scatchard
[14] = biological target: P582 D; test: 125I-FSH displacement / Scatchard
[15] = biological target: P582 Q; test: 125I-FSH displacement / Scatchard
[16] = biological target: K590 Q; test: 125I-FSH displacement / Scatchard
[17] = biological target: C; test: 125I-FSH displacement, Scatchard
[18] = biological target: P; test: 125I-FSH displacement, Scatchard
[19] = biological target: D; test: 125I-FSH displacement, Scatchard
[20] = biological target: T7, human LH receptor, wild type (human, UniProt P22888 27-699); test: 125I-hCG displacement / Scatchard; panels A-C
T7 sequence (P22888 27-699): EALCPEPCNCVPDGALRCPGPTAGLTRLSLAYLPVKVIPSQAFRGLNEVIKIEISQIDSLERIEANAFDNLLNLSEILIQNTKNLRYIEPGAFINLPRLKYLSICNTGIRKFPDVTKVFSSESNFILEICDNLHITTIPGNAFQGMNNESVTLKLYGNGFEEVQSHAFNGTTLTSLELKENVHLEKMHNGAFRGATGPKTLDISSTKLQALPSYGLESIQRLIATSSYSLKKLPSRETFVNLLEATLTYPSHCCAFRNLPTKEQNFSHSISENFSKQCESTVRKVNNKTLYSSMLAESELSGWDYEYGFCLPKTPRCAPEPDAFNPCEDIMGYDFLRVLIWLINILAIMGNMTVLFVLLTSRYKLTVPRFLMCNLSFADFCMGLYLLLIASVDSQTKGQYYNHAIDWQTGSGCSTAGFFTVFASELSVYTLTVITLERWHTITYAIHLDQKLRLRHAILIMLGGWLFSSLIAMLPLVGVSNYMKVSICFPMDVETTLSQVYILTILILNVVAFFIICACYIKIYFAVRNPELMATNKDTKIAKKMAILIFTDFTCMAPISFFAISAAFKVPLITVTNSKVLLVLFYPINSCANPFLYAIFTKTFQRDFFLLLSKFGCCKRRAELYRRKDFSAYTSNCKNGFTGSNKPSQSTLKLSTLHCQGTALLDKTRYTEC

[21] = biological target: T7, human LH receptor, wild type; test: 125I-hCG displacement / Scatchard; panels D-F

B1: human FSH (ligand)
chain 1: not shown
chain 2: NSCELTNITIAIEKEECRFCISINTTWCAGYCYTRDLVYKDPARPKIQKTCTFKELVYETVRVPGCAHHADSLYTYPVATQCHCGKCDSDSTDCTVRGLGPSYCSFGEMKE
What does the source list for B1?
Kd [1]: 3.64 nM; Kd [2]: 1.37 nM; Kd [3]: 2.53 nM; Kd [4]: 2.56 nM; Kd [5]: 1.56 nM; Kd [6]: 2.78 nM

B2: FSH (ligand)
chain 1: not shown
chain 2: B1 chain 2
B2 was tested. Which Kd [7] did it give?
The Kd was 4.1 nM.

And the Kd [8]?
The Kd was 1.9 nM.

What about the Kd [9] of the same binder?
The Kd was 4.3 nM.

And the Kd [10]?
The Kd was 6.5 nM.

And the Kd [11]?
The Kd was 2.4 nM.

What about the Kd [12] of the same binder?
The Kd was 4.7 nM.

What about the Kd [13] of the same binder?
The Kd was 4.5 nM.

What about the Kd [14] of the same binder?
Its Kd is 3.6 nM.

And the Kd [15]?
The Kd was 6.2 nM.

What about the Kd [16] of the same binder?
Its Kd is 19.6 nM.

What about the Kd [17] of the same binder?
Its Kd is 3.9 nM.

And the Kd [18]?
Its Kd is 1.6 nM.

And the Kd [19]?
The Kd was 1.2 nM.

B3: hCG (ligand)
chain 1: not shown
chain 2: SKEPLRPRCRPINATLAVEKEGCPVCITVNTTICAGYCPTMTRVLQGVLPALPQVVCNYRDVRFESIRLPGCPRGVNPVVSYAVALSCQCALCRRSTTDCGGPKDHPLTCDDPRFQDSSSSKAPPPSLPSPSRLPGPSDTPILPQ
With B3 as the binder, how does the Kd [20] read?
The Kd was 0.412 nM.

And the Kd [21]?
The Kd was 0.412 nM.
